Changes are numbered by the printed parent chain.
B1: 8K13-hz00 (antibody, human IgG1, V domains shown)
VH: QVQLVQSGAEVKKPGSSVKVSCKASGYAFSNYWMNWVRQAPGQGLEWMGQIYPGNGDTKYSGKFNSRVTITADESTSTAYMELSSLRSEDTAVYYCARFYYGNVMDYWGQGTLVTVSS
VL: DIVMTQSPDSLAVSLGERATINCKSSQTLLNGGNQKNYLTWYQQKPGQPPKLLIYWASTRESGVPDRFSGSGSGTDFTLTISSLQAEDVAVYYCQNGYSYPLTFGQGTKLEIK
notes: Humanized (direct CDR graft)
B2: 8K13-hz24 (antibody, human IgG1, V domains shown)
VH: B1 VH with N55S, N65Q, E74K, S77N
VL: B1 VL with M4L, N31S, V89L, N96Q
notes: Humanized; also called 8K13-hz24 IgG; 8K13-24 IgG
B3: 16K15-hz00 (antibody, human IgG1, V domains shown)
VH: EVQLVESGGGLVQPGGSLRLSCAASGITLSTYAMSWVRQAPGKGLEWVSSIISGGITYYLDSVKGRFTISRDNAKNSLYLQMNSLRAEDTAVYYCARKYHGNALDYWGQGTLVTVSS
VL: B1 VL with T28S, G32S, K36R, G97N, S99F
notes: Humanized (direct CDR graft)
B4: 52E22-hz00 (antibody, human IgG1, V domains shown)
VH: QVQLVQSGSELKKPGASVKVSCKASGYTLTNYGMNWVRQAPGQGLEWMGWIRPNTGEPTYAEDFKGRFVFSLDTSVSTAYLQICSLKAEDTAVYYCARLYRGNTLDNWGQGTLVTVSS
VL: B1 VL with T28N, G32S, K36R, Y100F, L102F
notes: Humanized (direct CDR graft)
B5: 52E22-hz12 (antibody, human IgG1, V domains shown)
VH: B4 VH with V2I, S77A, C84T
VL: B1 VL with T28N, N31S, G32S, K36R, V89L, N96Q, Y100F, L102F
notes: Humanized; also called 52E22-hz12 IgG; 52E22-12 IgG
B6: 8K13-xiIgG (antibody, V domains shown)
VH: QVHLQQSGAELVRPGSSVKISCKASGYAFSNYWMNWVRQRPGQGLEWIGQIYPGNGDTKYSGKFNSKDTLTADKSSNTAYMQLNSLTSEDSAVYFCARFYYGNVMDYWGQGTSVTVSS
VL: DIVLTQSPSSLTVTAGEKVTMSCKSSQTLLNGGNQKNYLTWYQQKSGQPPKLLIYWASTRESGVPDRFTGSGSGTDFTLTISSVQAEDLAVYYCQNGYSYPLTFGVGTKLELKR
notes: Murine variable regions on human IgG1 / kappa constant regions; also called 8K13 chimeric antibody
B7: 16K15-xiIgG (antibody, V domains shown)
VH: EVMLVESGGGLVRPGGSLKLSCAGSGITLSTYAMSWVRQTPERRLEWVASIISGGITYYLDSVKGRFTISRDNARNILYLQMSSLRSEDTAIYYCARKYHGNALDYWGQGTSVTVSL
VL: DIVMTQSPSSLPVTAGETVTMRCKSSQSLLNSGNQRNYLTWYQRKPGQPPKKLIYWASTRESGVPDRFTGSGSGTDFTLTISGVQAEDLAVYYCQNNYFYPLTFGAGTKLELKR
notes: Murine variable regions on human IgG1 / kappa constant regions; also called 16K15 chimeric antibody
B8: 52E22-xiIgG (antibody, V domains shown)
VH: QIQLVQSGPELKKPGETVKISCKASGYTLTNYGMNWVRQAPGKGLKWMGWIRPNTGEPTYAEDFKGRFVFSLETSAATAYLQITNLKSEDTSTYFCARLYRGNTLDNWGQGTSVIVSS
VL: DIVMTQSPSSLTVTTGEKVTMSCKSSQNLLNSGNQRNYLTWYQQKPGQSPKLLIYWASTRESGVPYRFTGSGSGTDFTLTISSVQTDDLAIYYCQNGYSFPFTFGSGTKLEIKR
notes: Murine variable regions on human IgG1 / kappa constant regions; also called 52E22 chimeric antibody
B9: 8K13-hz11 (antibody, V domains shown)
VH: B1 VH with E74K, S77N
VL: B1 VL with M4L, V89L
B10: 16K15-hz11 (antibody, human IgG1, V domains shown)
VH: B3 VH with A24G
VL: DIVMTQSPDSLAVSLGERATINCKSSQSLLNSGNQRNYLTWYQQKPGQPPKKLIYWASTRESGVPDRFSGSGSGTDFTLTISSLQAEDLAVYYCQNNYFYPLTFGQGTKLEIKR
notes: Only positions of reverse mutations are printed; copies: 2 + 2
B11: 52E22-hz11 (antibody, human IgG1, V domains shown)
VH: B4 VH with V2I, S77A, C84T
VL: B10 VL with S28N, K52L, N97G, F99S, Y100F, L102F
notes: Only the position of the reverse mutation is printed; copies: 2 + 2
B12: murine antibody 48G12 (antibody, V domains shown)
VH: EVQLRQSGPELVKPGASVKMSCKASGYTFTTYIINWVKQKPGQGLEWIGYINPYNDDTRYNERVKGKATLTSDKSSSTAYMELSSLTSEDSAVYYCARFYFGNSFTYWGQGTLVTVSA
VL: DIVMTQSPSSLPVTVGERVTMTCKSSQGLFNSGNQRNYLTWYQQKPGQPPKLLIYWASTRESGVPDRFTGSGSGTDFTLTISSVQAEDLAIYYCQNNYIYPLTFGAGTKLELK
notes: Mouse hybridoma antibody (supernatant)
B13: murine antibody 50C14 (antibody, V domains shown)
VH: B12 VH with D57G, Y100H
VL: B12 VL with V15T, R18K, S32N, T69I, Y100F
notes: as for B12

Each binder was assayed against T1, antigen human CLDN18.2, His-tagged (human, UniProt P56856-2 1-261, limits assumed) (assay: BLI (Fortebio), His-tagged antigen on NTA probe, 100 nM antibody, 1:1 fit).
T1 construct: Recombinant antigen used in the Fortebio assay (His-tagged, captured on NTA probe); also called His-tagged antigen; not shown: His tag
Procedure: (§1) The binding kinetic parameters of the chimeric antibodies and the humanized antibodies thereof to the antigen human CLDN18.2 were analyzed by a Fortebio (BLITZ pro1.1.0.28) instrument. Before performing the assay, an NTA bioprobe was soaked in PBS for 10 min, and the probe was then placed in PBS containing 100 nM antigen for 300 s to capture the His-tagged antigen. The probe was further subjected to a binding reaction with 100 nM antibody for a binding time of 400 s, and the probe was then transferred to PBS and subjected to a dissociation reaction for 600 s. When the assay was finished, data from which the response value of a blank control had been deducted were fitted to a 1:1 Langmuir binding model using software, and then the kinetic constants for antigen-antibody binding were calculated.

Q: For B1, which Kd is on record?
A: 0.744 nM

Q: And the Response?
A: 0.133

Q: And the koff?
A: 0.000198 s⁻¹

Q: What about the kon of the same binder?
A: 266000 M⁻¹ s⁻¹

Q: For B2, which Kd is on record?
A: 1.51 nM

Q: What about the Response of the same binder?
A: 0.133

Q: And the koff?
A: 0.000399 s⁻¹

Q: What about the kon of the same binder?
A: 264000 M⁻¹ s⁻¹

Q: What does the source list for B3?
A: Kd: 0.0895 nM; Response: 0.176; koff: 2.15e-05 s⁻¹; kon: 240000 M⁻¹ s⁻¹

Q: For B4, which Kd is on record?
A: 0.309 nM

Q: What about the Response of the same binder?
A: 0.188

Q: What about the koff of the same binder?
A: 6.11e-05 s⁻¹

Q: What about the kon of the same binder?
A: 198000 M⁻¹ s⁻¹

Q: What does the source list for B5?
A: Kd: 0.36 nM; Response: 0.226; koff: 7.83e-05 s⁻¹; kon: 218000 M⁻¹ s⁻¹

Q: With B6 as the binder, how does the Kd read?
A: 0.382 nM

Q: And the Response?
A: 0.134

Q: And the koff?
A: 0.000114 s⁻¹

Q: And the kon?
A: 298000 M⁻¹ s⁻¹

Q: For B7, which Kd is on record?
A: 0.557 nM

Q: And the Response?
A: 0.261

Q: What about the koff of the same binder?
A: 0.000154 s⁻¹

Q: What about the kon of the same binder?
A: 276000 M⁻¹ s⁻¹

Q: Which results are given for B8?
A: Kd: 0.0996 nM; Response: 0.223; koff: 3.55e-05 s⁻¹; kon: 357000 M⁻¹ s⁻¹

Q: How did the Kd turn out when B9 was run?
A: 0.297 nM

Q: And the Response?
A: 0.139

Q: What about the koff of the same binder?
A: 6.73e-05 s⁻¹

Q: What about the kon of the same binder?
A: 227000 M⁻¹ s⁻¹

Q: With B10 as the binder, how does the Kd read?
A: 0.535 nM

Q: And the Response?
A: 0.17

Q: And the koff?
A: 0.0001 s⁻¹

Q: What about the kon of the same binder?
A: 188000 M⁻¹ s⁻¹

Q: What does the source list for B11?
A: Kd: 0.542 nM; Response: 0.238; koff: 0.000197 s⁻¹; kon: 363000 M⁻¹ s⁻¹

These binders were tested against T1, antigen human CLDN18.2, His-tagged (assay: BLI (Fortebio), His-tagged antigen on NTA probe; ratio to 16K15-xiIgG).
Procedure: as §1

Q: For B3, which “Koff/Koff(Xi-IgG)” value is on record?
A: 0.14

Q: With B7 as the binder, how does the “Koff/Koff(Xi-IgG)” value read?
A: 1

Q: B10 was tested. Which “Koff/Koff(Xi-IgG)” value did it give?
A: 0.65

Each binder was assayed against T2, human CLDN18.2 expressed on cell surfaces (human, UniProt P56856-2 1-261) (assay: cell-based or functional assay).

Q: With B2 as the binder, how does the “CDC EC50, BxPC3 cells stably expressing human CLDN18.2 (CCK-8)” value read?
A: 28.5 nM

Q: What about the “CDC EC50, CHOK1 cells stably expressing human CLDN18.2 (CCK-8)” value of the same binder?
A: 21.3 nM

Q: What about the “CDC EC50, NCI-N87 cells stably expressing human CLDN18.2 (CCK-8)” value of the same binder?
A: 57.7 nM

Q: Which “CDC EC50, CHOK1 cells stably expressing human CLDN18.2 (CCK-8)” value does the source give for B5 here?
A: 2.08 nM

What follows are binders tested against T1, antigen human CLDN18.2, His-tagged (assay: SPR (BIAcore), antibody captured by anti-human Fc, antigen as analyte).
Procedure: Referring to the instructions provided in the Human Antibody Capture Kit (cat No. BR-1008-39, Lot 10261753) from GE Healthcare, the analytical channel and the control sample channel on a CM5 sensor chip were first saturated and coupled with the maximum amount of anti-human Fc antibody, then buffers containing anti-human CLDN18.2 chimeric antibodies, humanized antibodies or a control antibody IMAB362 at 7.5 μg/ml were allowed to flow through the analytical channel and uniformly distribute. Finally, antigen samples diluted in gradient (the initial concentration was 20 nM and diluted by 1:3 to get 8 concentrations, and the concentration 0.741 nM was set to be repeated) were allowed to flow through both the analytical channel and the sample channel, and the photoreactions upon the binding of antibody to antigen were measured. Subsequently, the association constant Kon and dissociation constant Koff and affinity constant KD of each antibody were finally obtained by instrument software fitting analysis.

Q: B2 was tested. Which Kd did it give?
A: 28.5 nM

Q: What about the koff of the same binder?
A: 0.00202 s⁻¹

Q: And the kon?
A: 70900 M⁻¹ s⁻¹

Q: For B5, which Kd is on record?
A: 1.18 nM

Q: What about the koff of the same binder?
A: 0.000172 s⁻¹

Q: And the kon?
A: 146000 M⁻¹ s⁻¹

Q: B6 was tested. Which Kd did it give?
A: 6.99 nM

Q: What about the koff of the same binder?
A: 0.000573 s⁻¹

Q: And the kon?
A: 81900 M⁻¹ s⁻¹

Q: Which results are given for B7?
A: Kd: 13.5 nM; koff: 0.00144 s⁻¹; kon: 107000 M⁻¹ s⁻¹

Q: What does the source list for B8?
A: Kd: 1.11 nM; koff: 0.000545 s⁻¹; kon: 490000 M⁻¹ s⁻¹

Each binder was assayed against T1, antigen human CLDN18.2, His-tagged (assay: BLI (Fortebio), His-tagged antigen on NTA probe; ratio to 8K13-xiIgG).
Procedure: as §1

Q: For B1, which “Koff/Koff(Xi-IgG)” value is on record?
A: 1.74

Q: How did the “Koff/Koff(Xi-IgG)” value turn out when B2 was run?
A: 3.5

Q: With B6 as the binder, how does the “Koff/Koff(Xi-IgG)” value read?
A: 1

Q: How did the “Koff/Koff(Xi-IgG)” value turn out when B9 was run?
A: 0.59

Target: T2, human CLDN18.2 expressed on cell …
Assay: cell-based or functional assay
Remark: another data set of the same source

Q: For B2, which “ADCC reporter EC50 (Jurkat NFAT-luciferase effector cells), BxPC3 target cells” value is on record?
A: 0.304 nM

Q: What about the “ADCC reporter EC50 (Jurkat NFAT-luciferase effector cells), CHOK1 target cells” value of the same binder?
A: 0.589 nM

Q: What about the “ADCC reporter EC50 (Jurkat NFAT-luciferase effector cells), NCI-N87 target cells” value of the same binder?
A: 0.15 nM

Q: With B5 as the binder, how does the “ADCC reporter EC50 (Jurkat NFAT-luciferase effector cells), CHOK1 target cells” value read?
A: 0.567 nM

The binders below were run against T1, antigen human CLDN18.2, His-tagged (assay: BLI (Fortebio), His-tagged antigen on NTA probe; ratio to 52E22-xiIgG).
Procedure: as §1

Q: With B4 as the binder, how does the “Koff/Koff(Xi-IgG)” value read?
A: 1.72

Q: For B5, which “Koff/Koff(Xi-IgG)” value is on record?
A: 2.21

Q: Which “Koff/Koff(Xi-IgG)” value does the source give for B8 here?
A: 1

Q: How did the “Koff/Koff(Xi-IgG)” value turn out when B11 was run?
A: 5.55

What follows are binders tested against T2, human CLDN18.2 expressed on cell … (assay: FACS of hybridoma supernatants on CHOK1 cells).
Procedure: Balb/c mice were immunized with CHOK1 cells stably expressing human CLDN18.2 protein on cell surfaces. One month later, sera from the mice were analyzed by flow cytometry (FACS), and spleens were taken from mice having high antibody titers in sera. The spleen cells isolated by standard methods were fused with myeloma cells P3X63Ag8.653 using PEG or electrofusion methods. The fused hybridoma cells were seeded in 384 well plates, and after 10-14 days of culture, supernatants obtained were analyzed by FACS for antibody secretion by the hybridoma cells. Several clones were obtained that were able to bind to CHOK1 cells stably expressing human CLDN18.2 protein on cell surfaces and were not able to bind to CHOK1 cells stably expressing human CLDN18.1 protein on cell surfaces. Single cells of the obtained clones were obtained by Limiting Dilution, and each of the monoclonal hybridoma cell clones obtained after being diluted three times secreted only one antibody.

Q: Does B12 bind?
A: binds

Q: Does B13 bind?
A: binds

Reference: US20230250168A1 (MABWELL SHANGHAI BIOSCIENCE, published 2023)
